The values below come from PMC3631189.

Targets include hTACI-Fc; atacicept; hFn14-Fc (human) (UniProt Q9NP84).
Assay in all cases: SEC; gel permeation chromatography on Superdex-200, purified receptors-Fc loaded in 400 µl, eluted in PBS, absorbance at 280 nm
(In general: Size exclusion chromatography separates by hydrodynamic size, large species first.)

Regarding hTACI-Fc (Fc fusion), the stoichiometry N with hTACI-Fc is 2. As to atacicept (Fc fusion), the stoichiometry N in the assay with atacicept worked out at 2. Take “hFn14-Fc (from UniProt Q9NP84 28-80) (Fc fusion)”: the stoichiometry N in the assay with hFn14-Fc (human) was found to be 2.

The stoichiometry N is the number of molecules, sites or subunits per partner or assembly.
